Measurements published in US20050277167A1, “Prolyl 3-hydroxylases” (priority 2004, published 2005).

How the values were obtained:
[1] = molecular target: T1, (Pro-Pro-Gly)10 substrate (Gallus gallus, UniProt Q6JHU8); assay: Prolyl 4-hydroxylase activity assay, hydroxylation-coupled decarboxylation of 2-oxo[1-14C]glutarate; assay type: biochemical; settings: purified P3H1 enzyme
T1 construct: Purified P3H1 from 15-day-old chick embryos was tested for its enzymatic activity using a labeled procollagen substrate; from tissue; host or cells: 15 day-old chick embryos: rER-enriched extract, gelatin-Sepharose, then 1C10 antibody column eluted at pH 2.5
T1 sequence (Q6JHU8 15-725): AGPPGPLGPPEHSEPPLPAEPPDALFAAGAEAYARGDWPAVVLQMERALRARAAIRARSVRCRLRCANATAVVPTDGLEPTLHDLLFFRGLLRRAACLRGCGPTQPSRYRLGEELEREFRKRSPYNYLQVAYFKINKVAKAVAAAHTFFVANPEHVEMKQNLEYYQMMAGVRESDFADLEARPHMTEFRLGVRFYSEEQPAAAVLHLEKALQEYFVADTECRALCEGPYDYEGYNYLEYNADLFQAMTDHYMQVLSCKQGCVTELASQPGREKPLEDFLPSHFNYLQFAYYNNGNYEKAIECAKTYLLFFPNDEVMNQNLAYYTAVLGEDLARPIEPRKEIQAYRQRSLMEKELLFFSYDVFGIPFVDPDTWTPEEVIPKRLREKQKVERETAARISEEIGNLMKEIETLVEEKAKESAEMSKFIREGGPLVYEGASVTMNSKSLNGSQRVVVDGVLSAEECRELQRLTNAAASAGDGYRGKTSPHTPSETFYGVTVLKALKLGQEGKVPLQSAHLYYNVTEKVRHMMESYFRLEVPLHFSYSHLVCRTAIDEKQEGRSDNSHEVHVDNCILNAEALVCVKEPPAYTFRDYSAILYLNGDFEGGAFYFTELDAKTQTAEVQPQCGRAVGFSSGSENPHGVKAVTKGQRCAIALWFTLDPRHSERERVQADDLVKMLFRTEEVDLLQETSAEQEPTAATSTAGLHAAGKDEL
Experimental: The prolyl 4-hydroxylase activity was assayed by a method based on the hydroxylation-coupled decarboxylation of 2-oxo[1-^14C]glutarate (Kivirikko et al., 1982). The reaction was performed in a final volume of 1.0 ml, which contained 0.1 mg (Pro-Pro-Gly)10.9H^2O as substrate, 2 mM ascorbic acid, 0.05 mM FeSO^4, 0.1 mM dithiothreitol, 2 mg/ml bovine serum albumin, 0.1 mg/ml catalase, 50 mM Tris-HCl, pH 7.8, and 0.1 mM 2-oxo[1-^14C]glutarate (100,000 dpm). The reaction was stopped by the addition of 1 ml of 1 M KH2PO4, pH 5.0.

[2] = molecular target: T2, [2,3-3H]-L-proline-labeled procollagen substrate (Gallus gallus, UniProt Q6JHU8); assay: Prolyl 3-hydroxylase activity assay, release of tritiated water (THO) from labeled procollagen substrate; assay type: biochemical, chicken; settings: same Km expressed per ml reaction volume
T2 construct: Purified P3H1 from 15-day-old chick embryos was tested for its enzymatic activity using a labeled procollagen substrate; from tissue; host or cells: 15 day-old chick embryos: rER-enriched extract, gelatin-Sepharose, then 1C10 antibody column eluted at pH 2.5
T2 sequence (Q6JHU8 15-725): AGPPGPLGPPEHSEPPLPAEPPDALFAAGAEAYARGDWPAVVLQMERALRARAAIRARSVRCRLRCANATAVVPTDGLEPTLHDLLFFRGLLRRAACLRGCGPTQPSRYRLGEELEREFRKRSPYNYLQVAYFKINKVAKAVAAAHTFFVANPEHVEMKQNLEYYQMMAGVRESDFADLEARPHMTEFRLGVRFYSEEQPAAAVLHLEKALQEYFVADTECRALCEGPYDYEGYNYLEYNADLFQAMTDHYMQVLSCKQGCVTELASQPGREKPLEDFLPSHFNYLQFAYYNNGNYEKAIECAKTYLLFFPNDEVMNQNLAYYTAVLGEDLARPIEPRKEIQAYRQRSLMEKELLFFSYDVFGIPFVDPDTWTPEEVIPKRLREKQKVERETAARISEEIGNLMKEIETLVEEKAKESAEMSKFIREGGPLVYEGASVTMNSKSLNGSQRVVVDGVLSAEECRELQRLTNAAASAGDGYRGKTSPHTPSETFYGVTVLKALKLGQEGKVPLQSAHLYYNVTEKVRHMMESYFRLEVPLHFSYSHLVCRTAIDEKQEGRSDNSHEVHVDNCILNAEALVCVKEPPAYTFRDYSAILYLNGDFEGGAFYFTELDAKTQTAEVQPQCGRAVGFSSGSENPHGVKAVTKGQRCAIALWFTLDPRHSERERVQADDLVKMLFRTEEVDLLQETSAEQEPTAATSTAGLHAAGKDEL
Experimental: Prolyl 3-hydroxylase activity was measured based on the amount of tritiated water (THO) formed from a labeled procollagen substrate (Kivirikko et al. Matrix Biol, 16, 357-368 (1998); Risteli et al. Anal Biochem, 84, 423-431 (1978)) with the following modifications. [2,3-^3H]-L-Proline, 42 Ci/mmol, was purchased from Sigma.[2,3-^3H]-proline-labeled nonhydroxylated procollagen was prepared from the isolated cells of the leg tendons from 12 dozen 15 day-old chicken embryos (Berg et al., Biochemistry, 12, 3395-3401 (1973); Dehm et al. Biochim Biophys Acta, 264, 375-382 (1972); Kivirikko et al., Methods Enzymol, 82 Pt A, 245-304 (1982)). […]
The prolyl 3-hydroxylase reactions were performed as described previously (Kivirikko et al., 1982; Risteli et al., 1978; Tryggvason et al., 1976) but with the following modifications: the enzyme reaction was carried out for 60 minutes at 24° C. in a final volume of 2.0 mls containing 1×10^6 dpm [2,3-^3H]-L-proline-labeled substrate, 0.08 mM FeSO^4, 2 mM ascorbic acid, 0.5 mM 2-oxoglutarate, 0.2 mg/ml catalase, 2 mg/ml bovine serum albumin, 0.1 mM dithiothreitol, and 0.05 M Tris-HCl, pH 7.8. […] A 1.8 ml aliquot of the tritiated water was mixed with 10 mls Ecolume liquid scintillation cocktail (ICN) and counted in a Beckman LS5000TD liquid scintillation counter. […]

B1: P3H1: prolyl 3-hydroxylase 1 purified from 15-day-old chick embryos, chicken homologue of leprecan (protein)
chain: AGPPGPLGPPEHSEPPLPAEPPDALFAAGAEAYARGDWPAVVLQMERALRARAAIRARSVRCRLRCANATAVVPTDGLEPTLHDLLFFRGLLRRAACLRGCGPTQPSRYRLGEELEREFRKRSPYNYLQVAYFKINKVAKAVAAAHTFFVANPEHVEMKQNLEYYQMMAGVRESDFADLEARPHMTEFRLGVRFYSEEQPAAAVLHLEKALQEYFVADTECRALCEGPYDYEGYNYLEYNADLFQAMTDHYMQVLSCKQGCVTELASQPGREKPLEDFLPSHFNYLQFAYYNNGNYEKAIECAKTYLLFFPNDEVMNQNLAYYTAVLGEDLARPIEPRKEIQAYRQRSLMEKELLFFSYDVFGIPFVDPDTWTPEEVIPKRLREKQKVERETAARISEEIGNLMKEIETLVEEKAKESAEMSKFIREGGPLVYEGASVTMNSKSLNGSQRVVVDGVLSAEECRELQRLTNAAASAGDGYRGKTSPHTPSETFYGVTVLKALKLGQEGKVPLQSAHLYYNVTEKVRHMMESYFRLEVPLHFSYSHLVCRTAIDEKQEGRSDNSHEVHVDNCILNAEALVCVKEPPAYTFRDYSAILYLNGDFEGGAFYFTELDAKTQTAEVQPQCGRAVGFSSGSENPHGVKAVTKGQRCAIALWFTLDPRHSERERVQADDLVKMLFRTEEVDLLQETSAEQEPTAATSTAGLHAAGKDEL
prolyl 4-hydroxylase activity [1]: did not have any prolyl 4-hydroxylase activity
Km [2]: 89.5 μl of substrate per ml
